Test results: patent US20050070692A1 (published 2005)

How the values were obtained:
human IL-1β [1] = molecular target: T1, human IL-1β (human, UniProt P01584 117-269); assay: cell-based or functional assay
porcine IL-1β = molecular target: T2, porcine IL-1β (porcine, UniProt P26889 115-267); assay: BIAcore, antibody captured on anti-IgG CM5 chip, IL-1β flowed
T2 sequence (looked up): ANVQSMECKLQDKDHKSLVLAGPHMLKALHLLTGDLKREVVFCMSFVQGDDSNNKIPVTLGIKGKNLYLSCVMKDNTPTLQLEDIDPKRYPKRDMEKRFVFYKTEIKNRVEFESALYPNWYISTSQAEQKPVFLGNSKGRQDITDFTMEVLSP
Description: (§1) Affinities and specificities of both Hu007 and Mu007 were determined using BlAcore measurements. BIAcore™ is an automated biosensor system that measures molecular interactions. (Karlsson, et al. (1991) J. Immunol. Methods 145: 229-240). In these experiments antibody was immobilized at low density on a BIAcore™ chip. Ethyl-dimethylaminopropyl-carbodiimide (EDC) was used to couple reactive amino groups to purified goat anti-human IgG or goat anti-rabbit IgG to a flow cell of a carboxy-methyl (CM5) BIAcore™ sensor chip. Goat IgG was diluted in sodium acetate buffer, pH 4.0, and immobilized on a flow cell of a CM5 chip using EDC to yield 1000 response units. Unreacted sites were blocked with ehanolamine. A flow rate of 60 μL/min was used. Multiple binding/elution cycles were performed by injection a 100 μL solution of 15 μg/mL Mu007 or Hu007 followed by human IL-1β, mouse IL-1β, rat IL-1β, cynomolgus monkey IL-1β, porcine IL-1β, human IL-1 receptor antagonist, and human IL-1α at decreasing concentrations for each cycle (e.g., 1500, 750, 375, 188, 94, 47, 23.5, 12, and 0 picomolar). Elution was performed with glycine-HCl, pH 1.5. BIAevaluation™ was used to analyze the kinetic data. Table 2 depicts the affinities of Hu007 and Mu007 for human and cynomolgus IL-1β. […] Cynomolgus and porcine IL-1β had 100% binding to Hu007 relative to human IL-1β.

human IL-1β [2] = molecular target: T1, human IL-1β; assay: as above
Description: as §1

cynomolgus monkey IL-1β = molecular target: T3, cynomolgus monkey IL-1β (cynomolgus monkey, UniProt P79182 117-268); assay: as above
T3 construct: also called Cynomolgus IL-1β
T3 sequence (looked up): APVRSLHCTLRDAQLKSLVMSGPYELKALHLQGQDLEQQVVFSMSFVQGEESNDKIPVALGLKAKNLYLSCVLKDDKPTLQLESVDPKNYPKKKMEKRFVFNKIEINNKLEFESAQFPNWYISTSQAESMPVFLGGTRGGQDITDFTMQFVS
Description: as §1

human IL-1β [3] = molecular target: T1, human IL-1β; assay: competition ELISA on coated human IL-1β against biotinylated Mu007, Exp. B
Description: (§2) Wells of 96-well ELISA plates (Nunc-lmmuno plate, Cat # 439454, NalgeNunc) were coated with 100 μL of 0.5. μg/mL of human IL-1β in 0.2M sodium carbonate-bicarbonate buffer (pH 9.4) overnight at 4° C., washed with Wash Buffer, blocked with Superblock blocking buffer for 30 min at 37° C., and washed again with Wash Buffer. A mixture of biotinylated Mu007 (0.16 μg/mL final concentration) and competitor antibody (Mu007, Hu007, or Hu007 analogs starting at 100 μg/mL final concentration and serial 3-fold dilutions) in ELISA Buffer were added in triplicate in a final volume of 100 μL per well. As a no-competitor control, 100 μL of 0.16 μg/mL biotinylated Mu007 was used. As a background control, 100 gLL of ELISA Buffer was used. ELISA plates were incubated at 37° C. for 2 hr. After washing the wells with Washing Buffer, 100 μL of 1 μg/mL HRP-conjugated streptavidin (Jackson ImmunoResearch) was added to each well. ELISA plates were incubated at room temperature for 30 min and washed with Washing Buffer. For color development, 100 μL/well of ABTS substrate was added. Color development was stopped by adding 100 μL/well of 2% oxalic acid. Absorbance was read at 415 nm.
(§3) Mu007, Hu007 and Hu007 analogs competed with biotinylated Mu007 in a concentration-dependent manner. The IC₅₀ values of Mu007 and Hu007 in three independent ELISA competition experiments, obtained using the computer software Prism (GraphPad Software Inc., San Diego, Calif.) are shown in Table 1. The relative binding of Hu007 was on average 89% of Mu007.

human IL-1β [4] = molecular target: T1, human IL-1β; assay: competition ELISA on coated human IL-1β against biotinylated Mu007, Exp. C
Description: as §2, §3

B1: humanized antibody Hu007 (antibody, human IgG1, kappa, V domains shown)
VH: QVQLVQSGAEVKKPGASVKVSCKVSGYTFSRYWIEWVRQAPGKGLEWIGEILPGNGNINYNEKFKGKATITADTSTDTAYMELSSLRSEDTAVYYCSTIYYDYDQGFTYWGQGTLVTVSS
VL: DIQMTQSPSSLSASVGDRVTITCKASQDIDRYLSWFQQKPGKAPKSLIYRVKRLVDGVPSRFSGSASGTDYTLTISSLQPEDFATYYCLQYDEFPYTFGQGTKLEIKR
notes: Human IgG1 kappa; also called WT; Hu007 WT
IC50, inhibition of IL-1β stimulated proliferation of T1165.17 cells (3H-thymidine), average of three experiments (human IL-1β [1]): 480 pM
efficacy relative to Mu007 in the murine model of human IL-1β induced IL-6 (human IL-1β [1]): ~0.33 fraction of Mu007
binding relative to human IL-1β (porcine IL-1β): 100%
Kd (human IL-1β [2]): 10.2 pM
Kd (cynomolgus monkey IL-1β): 10.4 pM
binding relative to human IL-1β (cynomolgus monkey IL-1β): 100%
Hu007/Mu007 × 100 (IC50 ratio, relative binding against Mu007) (human IL-1β [3]): 88%
IC50 (human IL-1β [3]): 0.35 µg/mL
Hu007/Mu007 × 100 (IC50 ratio, relative binding against Mu007) (human IL-1β [4]): 82%
IC50 (human IL-1β [4]): 0.32 µg/mL
